Reference: article PMC11413003

What was measured:
[1] = molecular target: S. cerevisiae CIII2CIV1/2 supercomplex (S. cerevisiae) (UniProt P08067)
[2] = molecular target: S. cerevisiae CIII2CIV1/2 supercomplex (S. cerevisiae) (UniProt P08067); experiment: cryo-EM structure; 10.5 uM supercomplex with 126 uM S. cerevisiae cyt. c (~1:12) in 20 mM KCl, 20 mM KH2PO4 pH 7.4, 0.01 % GDN; 3D classification with a mask over the cyt. c region
[3] = molecular target: complex III2 (CIII2) dimer of S. cerevisiae (S. cerevisiae) (UniProt P08067); experiment: as above

Substance	QH2:O2 oxidoreductase activity (O2 reduction upon addition of QH2) of the supercomplex, cyt. c varied up to ~50 uM, 20 mM KCl [1] [electrons/s]	stoichiometry N (cyt. c per CIII monomer-CIV pair) [2]	stoichiometry N [3]
cytochrome c from S. cerevisiae (from UniProt P00044 1-109) (natural protein)	50	2	
complex III2 (CIII2) dimer of S. cerevisiae (from UniProt P08067 31-215; P07143 62-309; P00127 1-147; P22289 1-66)			2
